Reference: article PMC1807962 (Nucleic Acids Research, 2007)
Several values for one entry are separate records, joined by “and”; a condition that tells them apart may be missing. Equal values may be shown once.

Experiments:
Assay in all cases: SEC
[1] = biological target: Sso MCM ▵A (lacking the N-terminal A domain) (Sulfolobus solfataricus)
[2] = biological target: Sso MCM C-half (C-terminal half, AAA+ and HTH domains) (Sulfolobus solfataricus)
[3] = biological target: Sso MCM ▵A/HTH (lacking both the A domain and the HTH domain) (Sulfolobus solfataricus)
[4] = biological target: Sso MCM AAA+ core domain (Sulfolobus solfataricus)
SEC = biological target: the molecule itself

With “Sso MCM ▵A (lacking the N-terminal A domain) (domain or fragment)” the stoichiometry N [1] was 6.

“Sso MCM C-half (C-terminal half, AAA+ and HTH domains) (domain or fragment)” gave a stoichiometry N [2] of 2.

“Sso MCM ▵A/HTH (lacking both the A domain and the HTH domain) (domain or fragment)” showed a stoichiometry N [3] of 6.

“Sso MCM AAA+ core domain (domain or fragment)” was tested, and the stoichiometry N [4] was 2.

B1: Sulfolobus solfataricus MCM, full-length, wild-type (natural protein)
chain: MEIPSKQIDYRDVFIEFLTTFKGNNNQNKYIERINELVAYRKKSLIIEFSDVLSFNENLAYEIINNTKIILPILEGALYDHILQLDPTYQRDIEKVHVRIVGIPRVIELRKIRSTDIGKLITIDGILVKVTPVKERIYKATYKHIHPDCMQEFEWPEDEEMPEVLEMPTICPKCGKPGQFRLIPEKTKLIDWQKAVIQERPEEVPSGQLPRQLEIILEDDLVDSARPGDRVKVTGILDIKQDSPVKRGSRAVFDIYMKVSSIEVSQKVLDEVIISEEDEKKIKDLAKDPWIRDRIISSIAPSIYGHWELKEALALALFGGVPKVLEDTRIRGDIHILIIGDPGTAKSQMLQFISRVAPRAVYTTGKGSTAAGLTAAVVREKGTGEYYLEAGALVLADGGIAVIDEIDKMRDEDRVAIHEAMEQQTVSIAKAGIVAKLNARAAVIAAGNPKFGRYISERPVSDNINLPPTILSRFDLIFILKDQPGEQDRELANYILDVHSGKSTKNIIDIDTLRKYIAYARKYVTPKITSEAKNLITDFFVEMRKKSSETPDSPILITPRQLEALIRISEAYAKMALKAEVTREDAERAINIMRLFLESVGVDMESGKIDIDTIMTGKPKSAREKMMKIIEIIDSLAVSSECAKVKDILKEAQQVGIEKSNIEKLLTDMRKSGIIYEAKPECYKKV
In the case of B1, the “stoichiometry N” value (SEC) is reported as ≤ 12 and 6.
